In the supplement of paper PMC10567573:
± gives the standard deviation.

Assay: protein stability index of a GFP-peptide fusion (GPS, HEK-293T) (PSI 1-6); higher = more stable
[1] = treatment: DMSO, c terminus: a fixed tail appended
[2] = treatment: MLN4924 1 uM, 8 h, c terminus: a fixed tail appended
[3] = treatment: DMSO, c terminus: native
[4] = treatment: MLN4924 1 uM, 8 h, c terminus: native
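Note: 24-mer peptide tiles fused after GFP, lentivirally expressed, FACS-sorted into six equal bins by GFP/DsRed ratio, decoded by Illumina sequencing, PSI is the read-weighted mean bin number.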

Sequence | protein stability index [1] | protein stability index [2] | protein stability index [3] | protein stability index [4]
AKQQKFIKAVTHQVKFGQQNPRQV [ZC3H15] | 3.19 ± 0.22 | 3.4 ± 0.3 | – | –
MQKRSKAIHSSDEDEDEDDEEDFE [WASL] | 4.58 ± 0.23 | 4.69 ± 0.21 | – | –
FSIPPWRYDAEVVAIAQKFAALRA [MYORG] | 2.15 ± 0.3 | 2.22 ± 0.17 | – | –
FGTIISGIQLLIVEYKDIASIHWD [SLC35F2] | 3.15 ± 0.29 | 3 ± 0.34 | – | –
AHKMKFSDLFSLAEEYEDSSTKPP [INTS3] | 4.22 ± 0.17 | 4.17 ± 0.1 | – | –
IELLTGETWNPFKLQYQLRNVRER [GOLPH3L] | 2.29 ± 0.27 | 2.49 ± 0.21 | – | –
SDGSCKTAGEMVFVYENAKEGARN [BTBD10] | 4.31 ± 0.18 | 4.48 ± 0.16 | – | –
DEDLRRQMQDDEQKTRLLEDSVSR [PALM] | 5.46 ± 0.32 | 5.31 ± 0.38 | – | –
GVFGFFATIVFATDFYLIFNDVAK [CMTM3] | 2.75 ± 0.27 | 3.44 ± 0.43 | – | –
HPGEHEVGEPEFHYIAGAHGNEVL [CPXM2] | 5.1 ± 0.29 | 4.98 ± 0.31 | – | –
VFDNAIRAALISRRHLQFWKSHLK [RHOBTB1] | 2.06 ± 0.63 | 2.4 ± 0.29 | – | –
NQSFNIVDIKPANMEELTEVITAA [PPP2R2B] | 4.18 ± 0.26 | 4.26 ± 0.16 | – | –
SWGWDLGRNRLYHDGKNQPSKTYP [SPSB1] | 3.65 ± 0.094 | 3.53 ± 0.34 | – | –
FLQEEAIDRNYVPGKSLAVSCPGW [SNX12] | 2.73 ± 0.3 | 3.2 ± 0.2 | – | –
FQTRQEMTSMSAELKMRAIQAEER [LRRC45] | 4.12 ± 0.29 | 4.48 ± 0.22 | – | –
LKFDNSYSLWRSKSVYYRVYYTR [ACBD3] | – | – | 2.52 ± 0.6 | 2.29 ± 0.71
DFPAHRIVLAACSDYFCAMFTSEL [KLHL12] | 3.08 ± 0.41 | 3.27 ± 0.51 | – | –
LGQIVLLPAEARERSRGRSISRGR [MATN2] | 3.86 ± 0.45 | 4.21 ± 0.18 | – | –
SHEANKLQDMLDGFIKKFVLCPEC [EIF5] | 2.49 ± 0.74 | 2.65 ± 0.38 | – | –
KADTKGFCNISLFEDLPLQEPQSP [PLAGL1] | 4.46 ± 0.14 | 4.61 ± 0.12 | – | –
SRPAVGPPQPGCPAFIIVKLSPLR [ZSWIM9] | 2.59 ± 0.19 | 2.33 ± 0.15 | – | –
GCGWRCPEHGDRVAELFCRRCRRC [TRIM14] | 3.69 ± 0.27 | 4.12 ± 0.18 | – | –
YVYKPVMNQTCCPQYTIRCRPLQF [ATE1] | 2.65 ± 0.64 | 2.3 ± 0.33 | – | –

Sequence | protein stability index [1] | protein stability index [2] | protein stability index [3] | protein stability index [4]
EGTSSIVMEIQKQIEKKEKKLHKI [TAF7L] | 4.18 ± 0.044 | 4.76 ± 0.15 | – | –
QAVSAPGILNRPPAPTATVPAPQP [ZNF207] | 4.76 ± 0.17 | 4.91 ± 0.17 | – | –
VKEPCSLPMLSVDMENKENGSVGV [SAMD13] | 5 ± 0.19 | 5.11 ± 0.21 | – | –
YPHCTGISQQDPESDSQGQGNGLF [ZC2HC1C] | 3.82 ± 0.23 | 4.43 ± 0.48 | – | –
QKEVLPSMRKIVATWMLEVCEEQK [CCND1] | 3.01 ± 0.27 | 3 ± 0.3 | – | –
WLDNPERWNKVKMVVSREEVELAY [SEPHS2] | 2.87 ± 0.31 | 2.46 ± 0.31 | – | –
NRSDHGIFHSRTSLQKLSTKLSAQ [FCHSD1] | 3.43 ± 0.25 | 3.67 ± 0.36 | – | –
GEVVKIPSRVHGSLEPFRPQQAPQ [PWWP2B] | 4.22 ± 0.21 | 4.16 ± 0.23 | – | –
LMDCCLIVYHPYRPLLQYVQDMGQ [CCNC] | 3.26 ± 0.83 | 3.17 ± 0.55 | – | –
AKGWGPCYSRQFITSCPCWLEILL [SMAD6] | 2.69 ± 0.29 | 2.8 ± 0.42 | – | –
KVVLIGDSGVGKSNLLSRFTRNEF [RAB11A] | 2.33 ± 0.19 | 2.28 ± 0.39 | – | –
PDLNILEDSAESRPWRAGVLAEGD [PSD2] | 4.87 ± 0.13 | 4.99 ± 0.14 | – | –
GGYTPDLKMSYSRGLIPVKRGPSS [RBMY1A1] | 3.9 ± 0.14 | 3.8 ± 0.28 | – | –
FQVLCSINSIIHNPRAPVIIYKQT [CEP70] | 2.76 ± 0.83 | 2.6 ± 1.1 | – | –
SSLRRQFEFSVDSFQIVLDPMLDF [TENT5D] | 2.41 ± 0.32 | 2.17 ± 0.25 | – | –
ELTLARTDLEMQIEGLKEELAYLR [KRT16] | 2.95 ± 0.61 | 2.79 ± 0.44 | – | –
AVVAVDRQAIFPDTWTLTEEHGLQ [PXN] | 3.35 ± 0.51 | 3.35 ± 0.34 | – | –
GVTGWCTGFIFQKVGKLAATAVGG [FUNDC2] | 2.17 ± 0.048 | 2.48 ± 0.74 | – | –
LDFLPKDVKKEKLSPDIMKDAYVQ [TENT5D] | 3.96 ± 0.14 | 3.78 ± 0.26 | – | –
AVFAVSAVVHEYALAVCLSFFYPV [SOAT1] | 3.23 ± 0.37 | 3.07 ± 0.23 | – | –
PDQVAPFTFLQPLPLSPGVLSSTP [ATF4] | 3.44 ± 0.33 | 3.74 ± 0.19 | – | –
EDEKLCDPNTRPVGEKNCTGPPCD [ADAMTSL2] | 5.47 ± 0.21 | 5.46 ± 0.26 | – | –
TQARQVMEREFNNLLALGTDRKLD [PPFIA4] | 4.21 ± 0.52 | 4.12 ± 0.38 | – | –

Sequence | protein stability index [1] | protein stability index [2] | protein stability index [3] | protein stability index [4]
PSKTYPAFLEPDETFIVPDSFLVA [SPSB1] | 2.39 ± 0.33 | 2.45 ± 0.15 | – | –
PAPGKLLGPCVVGYGIYYFIYSTW [SAT2] | 2.62 ± 0.65 | 2.92 ± 0.46 | – | –
EEALKDEEERAQDRIATTDDTTAM [MAGEA10] | 5.7 ± 0.17 | 5.47 ± 0.24 | – | –
EVVMNSQQTPVGTPKDKRVSNTPL [PALM] | 3.44 ± 0.2 | 3.61 ± 0.2 | – | –
MSDYRGFGIGSEILKNLSQVAMRC [SAT1] | 2.11 ± 0.48 | 2.46 ± 0.56 | – | –
KMAVSRHLTRGRKMAHVIAACLYL [BRF1] | 2.81 ± 0.37 | 2.6 ± 0.56 | – | –
FEEFVHYLQDHEKKLRLVFKSLDK [SLC25A25] | 2.18 ± 0.27 | 2.51 ± 0.31 | – | –
IRTKLNYNPPKDDGSTYKIELEGI [GAN] | 2.76 ± 0.1 | 2.84 ± 0.39 | – | –
ATITSRGSSLSGSLCSLLESQSTS [LURAP1L] | 3.49 ± 0.28 | 3.6 ± 0.32 | – | –
IEIATYRKLLEGEESRISVPVHSF [PRPH] | 2.47 ± 0.26 | 2.47 ± 0.21 | – | –
DSQEAQSPGHSSAGQEGEDTLRRR [TOR1AIP2] | 5.58 ± 0.26 | 5.45 ± 0.58 | – | –
TESEIESETDFETEPETAPTTEPE [GNAS] | 5.66 ± 0.2 | 5.68 ± 0.27 | – | –
LDLMKEWIAHSEKLPRKVLQHVSE [SPACA9] | 3 ± 0.36 | 3.67 ± 0.47 | – | –
ICYLPHWMMQNLLLEEGGLVQVES [UFD1] | 2.65 ± 0.34 | 2.7 ± 0.5 | – | –
DYLIQATNETNVNIPQMADTLFER [SNAP91] | 3.64 ± 0.29 | 3.75 ± 0.2 | – | –
LLAEREQEEAIAQFPYVEFTGRDS [TMEM106C] | 4.6 ± 0.27 | 4.72 ± 0.13 | – | –
GDAHFDEDERWTNNFREYNLHRVA [MMP1] | 3.84 ± 0.18 | 4.11 ± 0.33 | – | –
YLSKTYCVDATRETNRLGRLINHS [KMT5A] | 2.35 ± 0.046 | 2.62 ± 0.25 | – | –
EEKVRDLLWAKFTNSDTPTSFNHM [TOR1AIP2] | 3.08 ± 0.12 | 3.19 ± 0.13 | – | –
KEHAVTMPCTWVMACAYAPSGCAI [GNB5] | 2.8 ± 0.36 | 2.49 ± 0.59 | – | –
LLSSSEEECKDRERPMYGRDSAYQ [EMD] | 4.48 ± 0.23 | 4.51 ± 0.46 | – | –
EKGETMEVIEKPENDPEWWKCKNA [NCK2] | 5.36 ± 0.32 | 5.486 ± 0.04 | – | –
SMQCKVILLDGSEYTCDVEKRSRG [EPB41L3] | 3.04 ± 0.29 | 3.61 ± 0.3 | – | –

Sequence | protein stability index [1] | protein stability index [2] | protein stability index [3] | protein stability index [4]
KPEAPLHLPVTFPGKDYDADRQCQ [ADAMTS4] | 5.05 ± 0.15 | 5.13 ± 0.22 | – | –
FFRMFDRNTKRDVTLEASRENSKP [PPP2R2B] | 3.45 ± 0.14 | 3.82 ± 0.23 | – | –
SNTLGFGTEQAPYGMQTQNYPKGG [ETS2] | 4.29 ± 0.26 | 4.2 ± 0.28 | – | –
PDLNTLLWEAEDRQNVPRKVPNHY [CPXM2] | 3.87 ± 0.27 | 3.86 ± 0.092 | – | –
RGKLKKTEEELRRIQTQKEQAKEN [ZC2HC1C] | 5.31 ± 0.13 | 5.39 ± 0.13 | – | –
NARGMGIRSPRPASVATWAIFVHR [CTBP1-DT] | 2.16 ± 0.48 | 2.15 ± 0.37 | – | –
AIVQQVPAPSRMQMPQGNPLLLSH [SNX8] | 2.72 ± 0.38 | 2.7 ± 0.31 | – | –
PLRAAHRRFNFDTDRPLLSTLEES [SMG5] | 3.94 ± 0.14 | 3.94 ± 0.18 | – | –
GDDGIVVVWNAQTGEKLLELNGHT [WDR41] | 3.39 ± 0.11 | 3.3 ± 0.35 | – | –
AIDRNYVPGKSLAVSCPGWSAVA [SNX12] | – | – | 2.73 ± 0.33 | 1.97 ± 0.31
LSWYRGRRPRTAFTQNQIEVLENV [HESX1] | 3.03 ± 0.094 | 3 ± 0.28 | – | –
LRESIASYLSLTSEDNTSFDRKKK [SLA] | 3.9 ± 0.16 | 3.81 ± 0.15 | – | –
GATVRSFSINSRLASSLGNLNAAT [CDC14A] | 2.98 ± 0.1 | 2.92 ± 0.21 | – | –
IIDSSLEDITYVLKPTFTKQQIAN [USP39] | 2.69 ± 0.26 | 2.8 ± 0.24 | – | –
YNSPQFKKTMSTFHNLVSLNLNYN [FBXO39] | 2.25 ± 0.32 | 2.12 ± 0.4 | – | –
SAYISNYAFANVFHGWKYMFGLVI [SLC2A12] | 2.91 ± 0.38 | 2.9 ± 0.67 | – | –
LGDSGLGPWQLNVFVCRVSAVLFY [P2RY14] | 3.32 ± 0.17 | 2.84 ± 0.42 | – | –
SQESALGNTVPAVEPGTPPLDILA [DNAAF3] | 5.17 ± 0.15 | 5.14 ± 0.12 | – | –
RRGVSDWDLRMKLHDRGAQVIHPQ [DNAAF3] | 3.58 ± 0.092 | 3.55 ± 0.35 | – | –
AARVGLLQYSTQVHTEFTLRNFNS [MATN2] | 2.37 ± 0.19 | 2.19 ± 0.28 | – | –
